Experimental data reported in patent US10233219 (TUFTS MEDICAL CENTER, dated 2019).
Non-standard residues stand in square brackets, D forms with d. No end group written: not given here. *: point of attachment. PEG8 = NCCOCCOCCOCCOCCOCCOCCOCCOCCC(=O)O; Palmitoyl = CCCCCCCCCCCCCCCC(=O)*; Tic = O=C(O)[C@@H]1Cc2ccccc2CN1

T1: human CMKLR1 (chemerin receptor) (human, UniProt Q99788 1-373)
T1 sequence (looked up): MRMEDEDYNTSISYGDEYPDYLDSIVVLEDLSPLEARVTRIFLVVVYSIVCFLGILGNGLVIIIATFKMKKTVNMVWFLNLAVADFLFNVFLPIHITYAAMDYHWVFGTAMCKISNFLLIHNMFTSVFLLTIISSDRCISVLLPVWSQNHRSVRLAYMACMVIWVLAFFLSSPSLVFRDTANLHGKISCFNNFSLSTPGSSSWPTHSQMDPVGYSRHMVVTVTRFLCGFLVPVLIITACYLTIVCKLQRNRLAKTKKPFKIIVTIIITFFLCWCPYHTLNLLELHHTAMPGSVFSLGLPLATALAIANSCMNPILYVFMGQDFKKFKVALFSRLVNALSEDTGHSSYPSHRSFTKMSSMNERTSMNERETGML

T2: mouse CMKLR1 (chemerin receptor) (mouse, UniProt P97468 1-371)
T2 sequence (looked up): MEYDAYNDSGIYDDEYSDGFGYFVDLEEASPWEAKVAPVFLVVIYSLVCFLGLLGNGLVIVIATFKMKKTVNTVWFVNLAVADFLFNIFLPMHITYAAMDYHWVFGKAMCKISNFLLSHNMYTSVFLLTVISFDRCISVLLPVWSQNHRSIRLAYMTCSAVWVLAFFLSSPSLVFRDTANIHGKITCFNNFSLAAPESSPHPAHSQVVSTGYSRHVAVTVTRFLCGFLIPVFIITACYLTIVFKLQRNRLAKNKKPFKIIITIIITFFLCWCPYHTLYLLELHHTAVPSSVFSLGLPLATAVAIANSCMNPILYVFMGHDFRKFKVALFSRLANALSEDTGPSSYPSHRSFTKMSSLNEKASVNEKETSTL

B1: s-Chem 21-157 (soluble recombinant human chemerin corresponding to amino acids 21-157) (ligand)
chain: ELTEAQRRGLQVALEEFHKHPPVQWAFQETSVESAVDTPFPAGIFVRLEFKLQQTSCRKRDWKKPECKVRPNGRKRKCLACIKLGSEDKVLGRLVHCPIETQVLREAEEHQETQCLRVQRAGEDPHSFYFPGQFAFS
B2: l-SubP-COOH (lipidated Substance P with a C-terminal free acid) (peptide)
peptide: {Palmitoyl-PEG8}-KGGRPKPQQFFGLM-OH
SMILES: CCCCCCCCCCCCCCCC(=O)NCCOCCOCCOCCOCCOCCOCCOCCOCCC(=O)N[C@@H](CCCCN)C(=O)NCC(=O)NCC(=O)N[C@@H](CCCNC(=N)N)C(=O)N1CCC[C@H]1C(=O)N[C@@H](CCCCN)C(=O)N1CCC[C@H]1C(=O)N[C@@H](CCC(N)=O)C(=O)N[C@@H](CCC(N)=O)C(=O)N[C@@H](Cc1ccccc1)C(=O)N[C@@H](Cc1ccccc1)C(=O)NCC(=O)N[C@@H](CC(C)C)C(=O)N[C@@H](CCSC)C(=O)O

Legend:
Assay in all cases: cell-based or functional assay
[1] = target: T1, human CMKLR1 (chemerin receptor)
[2] = target: T2, mouse CMKLR1 (chemerin receptor)
neurokinin 1 receptor = neurokinin 1 receptor (human, UniProt P25103 1-407)
Chain of neurokinin 1 receptor (P25103 whole entry): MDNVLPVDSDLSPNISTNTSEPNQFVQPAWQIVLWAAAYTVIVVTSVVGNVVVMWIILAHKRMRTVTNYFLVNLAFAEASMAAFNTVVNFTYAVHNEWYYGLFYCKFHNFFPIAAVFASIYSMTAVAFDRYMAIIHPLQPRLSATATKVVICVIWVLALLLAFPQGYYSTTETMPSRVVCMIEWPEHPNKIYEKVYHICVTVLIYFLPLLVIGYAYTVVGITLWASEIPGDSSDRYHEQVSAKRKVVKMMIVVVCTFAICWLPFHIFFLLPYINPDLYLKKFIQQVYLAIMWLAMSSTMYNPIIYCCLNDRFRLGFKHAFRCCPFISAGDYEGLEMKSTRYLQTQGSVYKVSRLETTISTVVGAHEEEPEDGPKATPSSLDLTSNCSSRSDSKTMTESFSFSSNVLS

Binder | EC50 [1] [nM] | pEC50 [1] | EC50 [2] [nM] | pEC50 [2] | EC50 (nM), + wash [1] [nM] | pEC50, + wash [1] | EC50 (nM), + wash [2] [nM] | pEC50, + wash [2] | EC50 (neurokinin 1 receptor) [nM]
H-[dY]FLPSQF[dA][Tic]S (also: D-Ser, which S not given here) [s-Stable Chem (soluble stable chemerin peptide)] | 60.6 | 7.21 | 11.9 | 7.92 |  |  |  |  | 
{Palmitoyl-PEG8}-GG[dY]FLPSQF[dA][Tic]S (also: D-Ser, which S not given here) [l-Stable Chem (lipidated stable chemerin peptide)] | 2.6 | 8.59 | 2 | 8.7 | 27.1 | 7.6 | 10.4 | 7.96 | 
B1 |  |  | 13.7 | 8.01 |  |  |  |  | 
B2 |  |  |  |  |  |  |  |  | 6.1
